Laboratory results as given in publication doi:10.1101/2025.08.26.672322.

What was measured:
[1] = molecular target: Gephyrin Δ199-233; test: SEC
[2] = molecular target: LSβ, fusion protein of lumazine synthase and GlyR β-subunit ICD (pentameric GlyR model); test: co-sedimentation
[3] = molecular target: Gephyrin P1 wt; test: ITC
[4] = molecular target: Gephyrin Δ199-233; test: ITC
[5] = molecular target: Gephyrin P1 wt; test: SEC

## Gephyrin Δ199-233 (natural protein)
[1]
  stoichiometry N: 3
[2]
  gephyrin in the pelleted fraction, fold of wt: 2 fold

## GlyR β-subunit ICD peptide (domain or fragment)
[3]
  KD high-affinity site: 63 nM
  KD low-affinity site: 1830 nM
[4]
  KD high-affinity site: 50 nM
  KD low-affinity site: 1540 nM

## Gephyrin P1 wt (natural protein)
[5]
  stoichiometry N: 3
